Reference: patent publication US20230395187A1

Target: SARS-CoV-2 spike protein, delta (SARS-CoV-2) (UniProt P0DTC2)
Test: virus-free Luminex binding assay, spike on beads

Substance: Imdevimab (RGN87) (antibody)
- EC50: 0.17 µg/mL
